Series [1] concerns template bleeding time. Further details: species or system Macaca fascicularis. Particulars: cynomolgus monkey, in vivo. An excerpt: In order to evaluate one aspect of the safety of zsig37 and its effect on template bleeding time, a pre-clinical model in Macaca fascicularis was used. Time to cessation of bleeding from standardized incisions on the animal's forearm, a procedure previously described by Wu, et al., Blood, 2002, 99:3623-3628, was employed to assess the effect of zsig37 on bleeding.
Methods. Five female and twelve male, Macaca fascicularis weighing 2.3 to 4.6 kg were used as test subjects on this project. The animals were immobilized with ketamine hydrochloride (Phoenix Scientific) administered intramuscularly at approximately 10 mg/kg. Each animal was examined, and the animal determined to be acceptable for the study. The right forearm, abdomen, ventral neck and inguinal area were shaved free of hair. The animal was transported to the surgical suite (University of Washington Regional Primate Research Center), positioned inside a heated air circulation system and placed onto isoflurane (Abbott Laboratories) inhalation anesthesia delivered through positive pressure ventilation via an endotracheal tube. […] The time to cessation of bleeding was determined and recorded for each animal. Bleeding times were determined for each animal prior to any treatment, after low molecular weight heparin (Lovenox™, Rhone Polenc, Inc.) treatment and after zsig37 treatment.

Series [2] relates to TF-1 cells. The series can be described thus: Adhesion and spreading of TF-1 cells on zsig37-coated plates. The series is classed as cell-based. The note with it: plates coated in PBS vs 0.1 M NaCO3. As for the experimental part: The ability of zsig37 to stimulate adhesion and spreading of TF-1 cells was assayed as follows. A series of dilutions were prepared from C-terminal Glu-Glu-tagged zsig37, from 10 to 0.0625 ’g/ml, in either PBS or ELISA coating buffer (0.1 M NaCO3) and each was plated into a 96 well plate (Costar; Pleasanton, Calif.) at 100 μl/well. The plates were incubated at 37° C., 5% CO2 for 2 hours. The plates were then washed 3× with RPMI/10% FBS (RPMI 1640, 2 mM L-glutamine, 110 μg/ml sodium pyruvate, PSN and 10% heat inactivated fetal bovine serum) and allowed to block for 15 minutes.
TF-1 cells (derived from acute myeloid leukemia cells) were resuspended in RPMI/10% FBS and plated into at 10,000 cells/well into the zsig37CEE-coated 96 well plates at a final volume of 120 μl/well. The plate was incubated at 37° C. under 5% CO2 for 2 hours. The plates were then washed 3× with PBS and 200 μl/well growth media (RPMI/10% FBS, 5 ng/ml GM-CSF) was added. The cells were microscopically inspected before and after the wash.
A dye incorporation assay was also used to measure the number of adherent cells based on a colorimetric change and an increase in fluorescent signal. ALAMAR BLUE (AccuMed; Chicago, Ill.) was added to the 96 well plates and the cells were incubated at 37° C. under 5% CO2 overnight. […]

In the case of “ReoPro: comparator in template bleeding time study, 0.25 mg/kg [reference compound]”, in series [1], the “template bleeding time vs control (1.0 mg/kg BSA)” value is “unable to stop their bleeding”.

B1: zsig37CEE: zsig37 polypeptide having a C-terminal Glu-Glu tag (protein)
chain: LVLSRVPHVQGEQQEWEGTEELPSPPDHAERAEEQHEKYRPSQDQGLPASRCLRCCDPGTSMYPATAVPQINITILKGEKGDRGDRGLQGKYGKTGSAGARGHTGPKGQKGSMGAPGERCKSHYAAFSVGRKKPMHSNHYYQTVIFDTEFVNLYDHFNMFTGKFYCYVPGLYFFSLNVHTWNQKETYLHIMKNEEEVVILFAQVGDRSIMQSQSLMLELREQDQVWVRLYKGERENAIFSEELDTYITFSGYLVKHATEPEEYMPME
As for B1, the “adherent cells (ALAMAR BLUE dye incorporation)” value in series [2] was “more adherent cells on the C-terminal Glu-Glu tagged (zsig37CEE)-PBS coated plates than on the zsig37CEE-0.1 M NaCO3 coated plates”.

For the origin of these results see patent US20060252692A1, “Inhibitors for use in hemostasis” (ZymoGenetics, Inc., priority 2002, published 2006).
